From US20220267410A1 (UNIVERSITAT STUTTGART, published 2022)
Positions count from the first letter of the chain named.

T1: human TNFR2-Fc (etanercept) (human, UniProt P20333 23-257)
T1 construct: Commercial drug coated on ELISA plates (200 ng/well); also called immobilized TNF-R2; not shown: Fc part of etanercept
T1 sequence (looked up): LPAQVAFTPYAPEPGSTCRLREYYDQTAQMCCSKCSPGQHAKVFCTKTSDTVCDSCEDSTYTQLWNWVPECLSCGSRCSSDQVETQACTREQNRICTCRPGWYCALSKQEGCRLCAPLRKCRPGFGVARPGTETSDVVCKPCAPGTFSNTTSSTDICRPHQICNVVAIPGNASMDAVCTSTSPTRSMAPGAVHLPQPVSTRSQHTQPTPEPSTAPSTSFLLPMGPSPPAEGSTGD

T2: TNFR2 on Kym-1 cells (UniProt P20333 23-461, limits assumed)
T2 sequence (looked up): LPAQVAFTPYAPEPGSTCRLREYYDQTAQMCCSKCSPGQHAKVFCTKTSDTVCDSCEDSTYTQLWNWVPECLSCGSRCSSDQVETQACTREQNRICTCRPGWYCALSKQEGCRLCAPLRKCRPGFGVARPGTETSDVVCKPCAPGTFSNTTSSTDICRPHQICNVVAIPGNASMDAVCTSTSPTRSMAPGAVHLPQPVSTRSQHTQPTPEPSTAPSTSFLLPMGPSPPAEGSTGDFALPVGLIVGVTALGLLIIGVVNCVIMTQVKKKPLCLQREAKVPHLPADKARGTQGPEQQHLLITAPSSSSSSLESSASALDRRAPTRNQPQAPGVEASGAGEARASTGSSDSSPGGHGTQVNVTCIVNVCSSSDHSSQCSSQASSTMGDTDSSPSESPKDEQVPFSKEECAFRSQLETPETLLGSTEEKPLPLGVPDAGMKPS

B1: 6xHis-scTNFR2 143 (ligand)
chain: MCGSHHHHHHSGIPASDKPVAHVVANPQAEGQLQWLNRRANALLANGVELRDNQLVVPSEGLYLIYSQVLFKGQGCPSTHVLLTHTISRIAVSYQTKVNLLSAIKSPCQRETPEGAEAKPWYEPIYLGGVFQLEKGDRLSAEINRPDYLNFRESGQVYFGIIALGGGPSDKPVAHVVANPQAEGQLQWLNRRANALLANGVELRDNQLVVPSEGLYLIYSQVLFKGQGCPSTHVLLTHTISRIAVSYQTKVNLLSAIKSPCQRETPEGAEAKPWYEPIYLGGVFQLEKGDRLSAEINRPDYLNFRESGQVYFGIIALGGGPSDKPVAHVVANPQAEGQLQWLNRRANALLANGVELRDNQLVVPSEGLYLIYSQVLFKGQGCPSTHVLLTHTISRIAVSYQTKVNLLSAIKSPCQRETPEGAEAKPWYEPIYLGGVFQLEKGDRLSAEINRPDYLNFRESGQVYFGIIAL
notes: Expressed with Igκ leader and N-terminal 6xHis tag; also called variant 143
B2: 6xHis-scTNFR2 146 (ligand)
chain: MCGSHHHHHHSGIPASDKPVAHVVANPQAEGQLQWLNRRANALLANGVELRDNQLVVPSEGLYLIYSQVLFKGQGCPSTHVLLTHTISRIAVSYQTKVNLLSAIKSPCQRETPEGAEAKPWYEPIYLGGVFQLEKGDRLSAEINRPDYLNFRESGQVYFGIIALGGGTPSDKPVAHVVANPQAEGQLQWLNRRANALLANGVELRDNQLVVPSEGLYLIYSQVLFKGQGCPSTHVLLTHTISRIAVSYQTKVNLLSAIKSPCQRETPEGAEAKPWYEPIYLGGVFQLEKGDRLSAEINRPDYLNFRESGQVYFGIIALGGGTPSDKPVAHVVANPQAEGQLQWLNRRANALLANGVELRDNQLVVPSEGLYLIYSQVLFKGQGCPSTHVLLTHTISRIAVSYQTKVNLLSAIKSPCQRETPEGAEAKPWYEPIYLGGVFQLEKGDRLSAEINRPDYLNFRESGQVYFGIIAL
notes: Expressed with Igκ leader and N-terminal 6xHis tag; also called variant 146
B3: 6xHis-scTNFR2 147 (ligand)
chain: B2 chain with T168G, T322G
notes: Expressed with Igκ leader and N-terminal 6xHis tag; also called variant 147

The binders below were run against T1, human TNFR2-Fc (etanercept) (assay: ELISA on coated etanercept).
Experimental: The binding of scTNFR2 and the scTNFR2-Fc(Δab) proteins to human TNFR2-Fc (etanercept) was analyzed by ELISA. 96-well ELISA plates were coated with 200 ng/well etanercept in coating buffer (0.1 M sodium carbonate, pH 9.5) overnight at 4° C., blocked with 2% skim milk in PBS (MPBS) and washed with washing buffer PBST (PBS, 0.05 Tween 20). ScTNFR2 and scTNFR2-Fc(Δab) proteins were titrated in duplicates and incubated on the plates for 2 h at room temperature, followed by washing with PBST. Receptor-bound complexes were detected with mouse anti-huTNFα F6C5 (Novus, 1 μg/ml) and goat anti-mouse IgG(Fc)-HRP (Sigma-Aldrich, 1:10,000), followed by extensive washing with PBST each, before incubation with HRP substrate.

| Binder | EC50 |
| --- | --- |
| B1 | 0.67 nM |
| B2 | 0.71 nM |
| B3 | 0.76 nM |

These binders were tested against T2, TNFR2 on Kym-1 cells (assay: cell-based or functional assay).

| Binder | EC50 of bioactivity on Kym-1 with 80M2 (cell death, crystal violet) |
| --- | --- |
| B1 | 0.0119 nM |
| B2 | 0.00655 nM |
| B3 | 0.00858 nM |
